The values that follow come from the Human Domainome abundance scans (Beltran et al. 2025).

± gives the uncertainty stated by the source.

Sequences and labels used below:
B1: Zinc finger MYM-type protein 2, residues 463 to 506; numbered along this chain, Q9UBW7 (parent)
chain: IMNCCEQCGEYLPSKGAGNNVLVIDGQQKRFCCQSCVSEYKQVG

The data set covers variants of B1. The experiment in a line: abundance fitness (aPCA) (normalised: wild type 0, dead -1); higher = more abundant; growth selection in yeast, the domain comes from the species named. As to conditions: Homo sapiens.
In the case of IMNCCEQCGEYGPSKGAGNNVLVIDGQQKRFCCQSCVSEYKQVG, the abundance fitness is -0.385 ± 0.068.

In the case of IMNCEEQCGEYLPSKGAGNNVLVIDGQQKRFCCQSCVSEYKQVG, the abundance fitness is -0.377 ± 0.11.

Take IMNCVEQCGEYLPSKGAGNNVLVIDGQQKRFCCQSCVSEYKQVG: the abundance fitness is -0.884 ± 0.094.

In the case of IMNCGEQCGEYLPSKGAGNNVLVIDGQQKRFCCQSCVSEYKQVG, the abundance fitness was -0.7 ± 0.068.

In the case of IMNCCEQCGEYLPSKGAGNNVLVQDGQQKRFCCQSCVSEYKQVG, the abundance fitness was -0.177 ± 0.2.

In the case of IMNCCEQCGEYLPSKGAGNNVLVCDGQQKRFCCQSCVSEYKQVG, the abundance fitness is -0.124 ± 0.14.

Regarding IMNCCEQCGEYLPSKGAGNNVLVSDGQQKRFCCQSCVSEYKQVG, the abundance fitness is -0.09 ± 0.084.

IMNCCEQCGEYLPSKGAGNNVLVFDGQQKRFCCQSCVSEYKQVG: the abundance fitness is 0.052 ± 0.18.

Consider IMNCCEQCGEYLPSKGAGNNVLQIDGQQKRFCCQSCVSEYKQVG, for which the abundance fitness was 0.181 ± 0.15.

As to IMNCCEQCGEYLPSKGAGNNVLMIDGQQKRFCCQSCVSEYKQVG, the abundance fitness turned out to be 0.18 ± 0.11.

Take IMNCCEQCGEYLPSKGAGNNVLIIDGQQKRFCCQSCVSEYKQVG: the abundance fitness was determined as 0.031 ± 0.12.

As for IMNCCEQCGEYLPSKGAGNNVLSIDGQQKRFCCQSCVSEYKQVG, the abundance fitness is 0.025 ± 0.12.

Consider IMNCCEQCGEYLPSKGAGNNVLVIDGQQKRFCCQSIVSEYKQVG, for which the abundance fitness stood at 0.163 ± 0.3.

As to IMNCCEQCGEYLPSKGAGNNVLVIDGQQKRFCCQSRVSEYKQVG, the abundance fitness is -0.37 ± 0.079.

With IMNCCEQCGEYLPSKGAGNNVLVIDGQQKRFCCQSNVSEYKQVG, the abundance fitness was -0.273 ± 0.34.

Take IMNCCEQCGEYLPSKGAGNNVLVIDGQQKRFCCQSTVSEYKQVG: the abundance fitness was -0.106 ± 0.13.

Turning to IMNCCEQCGIYLPSKGAGNNVLVIDGQQKRFCCQSCVSEYKQVG, the abundance fitness was -0.66 ± 0.28.

As to IMNCCEQCGEYLPSLGAGNNVLVIDGQQKRFCCQSCVSEYKQVG, the abundance fitness is -0.094 ± 0.11.

In the case of IMNCCEQCGEYLPSSGAGNNVLVIDGQQKRFCCQSCVSEYKQVG, the abundance fitness was determined as 0.114 ± 0.13.

Take IMNCCEQCGEYLPSAGAGNNVLVIDGQQKRFCCQSCVSEYKQVG: the abundance fitness was determined as 0.089 ± 0.077.

In the case of IMNCCEQCGEYLPSKGAGNNVLVIDGQQKRFCCQRCVSEYKQVG, the abundance fitness came out at 0.085 ± 0.072.

Regarding IMNCCEQCGEYLPSKGAGNNVLVIDGQQKRFCCQFCVSEYKQVG, the abundance fitness is -0.226 ± 0.19.

On to IMNCCEQCGEYLPSKGAGNNVLVIDGQQKRFCCQQCVSEYKQVG, for which the abundance fitness is -0.065 ± 0.095.

For IMNCCEQCGEYLPSKGAGNNVLVIDGQQKRFCCQICVSEYKQVG, the abundance fitness is 0.024 ± 0.11.

Turning to IMNCCEQCGEYLPSKGAGNNVLVIDGQQKRFCCQWCVSEYKQVG, the abundance fitness was -0.114 ± 0.088.

Consider IMNCCEQCGEYLPSKGAGNNVLVIDGQQKRFCCQSCVSEYKHVG, for which the abundance fitness was -0.08 ± 0.12.

Turning to IMNCCEQCGEYLPSKGAGNNVLVIDGQQKRFCCQSCVSEYKWVG, the abundance fitness was -0.398 ± 0.14.

Consider IMNCCEQCGEYLPSKGAGNNVLVIDGQQKRFCCQSCVSEYKSVG, for which the abundance fitness is -0.023 ± 0.13.

With IMNCCEQCGEYLPSKGAGNNVLVIDGQQKRGCCQSCVSEYKQVG, the abundance fitness is -0.185 ± 0.087.

Turning to IMNCCEQCGEYLPSKGAGNNVLVIDGQQKRLCCQSCVSEYKQVG, the abundance fitness is -0.248 ± 0.083.

In the case of IMNCCEQCGEYLPSKGAGNNVLVIDGQQKRSCCQSCVSEYKQVG, the abundance fitness is -0.231 ± 0.099.

In the case of IMNCCEQCGEYLPSKGAGNNVLVIDGQQKRNCCQSCVSEYKQVG, the abundance fitness is -0.392 ± 0.37.

For IMNCCEQCGEYLPSKGAGNNVLVIDGAQKRFCCQSCVSEYKQVG, the abundance fitness is -0.045 ± 0.13.

With IMNCCEQCGEYLHSKGAGNNVLVIDGQQKRFCCQSCVSEYKQVG, the abundance fitness was -0.187 ± 0.17.

Turning to IMNCCEQCGEYLVSKGAGNNVLVIDGQQKRFCCQSCVSEYKQVG, the abundance fitness was -0.669 ± 0.4.

Regarding IMNCCEQCGEYLWSKGAGNNVLVIDGQQKRFCCQSCVSEYKQVG, the abundance fitness is -0.536 ± 0.13.

Consider IMNCCEQCGEYLPSKGAGNNVLVIDGQQKRFCCQSCVGEYKQVG, for which the abundance fitness is -0.024 ± 0.071.

Regarding IMNCCEQCGEYLPSKGAGNNVLVIDGQQKRFCCQSCVQEYKQVG, the abundance fitness is -0.01 ± 0.16.

In the case of IMNCCEQCGEYLPSKGAGNNCLVIDGQQKRFCCQSCVSEYKQVG, the abundance fitness was -0.302 ± 0.23.

Consider IMNCCEQCGEYLPSKGAGNNQLVIDGQQKRFCCQSCVSEYKQVG, for which the abundance fitness is -0.172 ± 0.13.

Regarding IMNCCEQCGEYLPSKGAGNNLLVIDGQQKRFCCQSCVSEYKQVG, the abundance fitness was -0.162 ± 0.11.

Consider IMNCCEQCGEYLPSKGAGNNVLVIDGQQVRFCCQSCVSEYKQVG, for which the abundance fitness is -0.078 ± 0.082.

Turning to IMNCCEQCGEYLPSKGAGNNVLVIDGQQFRFCCQSCVSEYKQVG, the abundance fitness was -0.17 ± 0.089.

In the case of IMNCCEQCGEYLPSKGAGNNVLVIDGQQLRFCCQSCVSEYKQVG, the abundance fitness was -0.067 ± 0.085.

IMNCCEQCGEYLPSKGAGNNVLVIDGQQGRFCCQSCVSEYKQVG: the abundance fitness was -0.234 ± 0.082.

For IMNCCEQCGEYLPSKGASNNVLVIDGQQKRFCCQSCVSEYKQVG, the abundance fitness was -0.347 ± 0.18.

For the variant IMNCCEQCGEYLPSKGATNNVLVIDGQQKRFCCQSCVSEYKQVG, the abundance fitness was -0.377 ± 0.17.

In the case of IMNCCEQCGEYLPSKGAENNVLVIDGQQKRFCCQSCVSEYKQVG, the abundance fitness was 0.302 ± 0.12.

On to IMNCCEQCGEYLPSKGAANNVLVIDGQQKRFCCQSCVSEYKQVG, for which the abundance fitness amounted to 0.015 ± 0.13.

For the variant IMNCCEQCGEYLPSKGADNNVLVIDGQQKRFCCQSCVSEYKQVG, the abundance fitness amounted to 0.59 ± 0.5.

Regarding IMNCCEQCGEYLPSKGAGNNVLVIDEQQKRFCCQSCVSEYKQVG, the abundance fitness is -0.077 ± 0.098.

In the case of IMNCCEQCGEYLPSKGAGNNVLVIDRQQKRFCCQSCVSEYKQVG, the abundance fitness is -0.255 ± 0.07.

In the case of IMNCCEQCGEYLPSKGAGNNVLVIDTQQKRFCCQSCVSEYKQVG, the abundance fitness was -0.291 ± 0.1.

Turning to IMNCCEQCGEYLPSKGAGNNVLVIDGQQKRFCCQSCVSEDKQVG, the abundance fitness is -0.057 ± 0.18.

For IMNCCEQCGEYLPSKGAGNNVLVIDGQQKRFCCQSCVSEWKQVG, the abundance fitness came to 0.002 ± 0.11.

Take IMNCCEQCGEYLPSKGAGNNVLVIDGQQKRFCCQSCVSEKKQVG: the abundance fitness is -0.057 ± 0.18.

For IMNCCEQCGEYLPSKGAGNNVLVIDGQQKRFCCQSCVSEPKQVG, the abundance fitness was found to be 0.192 ± 0.16.
